From the DeepSol protein solubility set

Assay: soluble on expression in E. coli; label from the status in PepcDB or PDB records

Sequence | soluble on expression in E. coli
MSLEYNDVVEAVISALKKAHTELPEDVVTAIKKAYDSEENDIAKRNLEAILKNIEAAKKLGVPMCQDTGIPVFFVEVGRELCLDFDLKEAIVEGVRKATAEIPLRPNAVHPITRENSGDNTGLGIPQINVELVKGDELRMVVMPKGAGSENVSALKMMLPTQVDKIKDFVVETVKNAGGKPCPPIFVGVGVGSTFDGAAKLAKKALLRNVLEMNDFELELLEAVNELGIGAMGLGGKYTALAVLVEFGHCHTASLPVAVNIQCWANRRAEVVLREGGSHHHHHH | soluble
WQGLSSKGDLPQVEITKAFFAKQADEVTLQQADVVLVLQQEDGWLYGERLRDGETGWFPEDFARFI | soluble
PKKEVVRIHASSGTTGKPTVVGYTKKDLKTWAELISRVVTAAGVTDEDTAQVAFGYGLFTGGFGLHYGLENVGASVIPMSSGNTEKQIMLMKDFETTVLICTPSYALYISEVAQKMGIDPKKDLKLKIGLFGGEACSESARTEIESKWGILATQNYGMSELMGPGVSGECEYQCGMHIS | not soluble
SNAMDIVSVALQRYSTKAFDPSKKLTAEEADKIKTLLQYSPSSTNSQPWHFIVASTEEGKARVAKSAAGNYTFNERKMLDASHVVVFCAKTAMDDAWLERVVDQEDADGRFATPEAKAANDKGRRFFADMHRVSLKDDHQWMAKQVYLNVGNFLLGVAAMGLDAVPIEGFDAEVLDAEFGLKEKGYTSLVVVPVGHHSVEDFNAGLPKSRLPLETTLTEV | soluble
MRIGINVGSTQVDAVILSKHGKVVAASETVIQDDETVLAIKEALVSLIRYLRDTDEVRGVFIGATSECQEVKLGKGLAKTGLIRLNRYQSQIQPLMKWPKALSDHVVYTQSVEIGEELDWFNYFQESLARLKEAEVEAIAVVGAFSPMDNCSEQLVKESLNYHLPSIPVTMSHTIGSIGFLERENAAVLNAVLSKKMKNTLKGVKDFLSSLGFHCPLWVTRNDGCLMTIEEAIEFPVLTLGSGSANSFRGGAFLAEERSCIVVHVSEGITKIGTMIQERFEESHSQTYVFGIPTNLRMPHSIVLPLGEEKQGALGHDIRHGNPSEKTKREEVLISERKGISLAERHAGSSASNLEDQQEMWSTLKQSGLDREAMTQYAERVNDSIEELQIYDQELPIVVVGSGAPCMMQRLQSQTREVVAPFGYQRCHAVGACLGMVSAEVDQVYHLKDQTKAEVIEEAKEKAIKEAERKGAFPDTISIEQVEEYPFDYLQGEVIRIRVKAVGQVKDSLEHHHHHH | not soluble
MSLRMIGKVLELLNCKETEREINRRKFSICDDVNFILNLPIGYLKDVISPLENYLSKHMTNNFSRLTRVVPNDYEDTQLHFSKFFLNLYSSAISEIPRFNILTSLVILDEYRMMPDKALIAAADELARNGINAIFSTSTPSVFFEEEIVSRFRNRRVVSISIVNEYGQAVEGRDCVKKGEGYYQCRGSYEVIELIEDFDIRDLDYEIIKGEEVFKVKEPFTLFVNSWEKALRLYRKLREERNTEVCLLNSSDECKVTITPKIMPTRFNVVSEISSLPTIVARSGIINDKDKIYVWIDRDNYDTVTESTLNLLSNIKVCLKHPFGCNGKMGYANKTVLKPNIDERLIKRLSEISHLMDRREFEKVTEVFSDFVTVDLFTDKEKITTVPPEFVYENKKKILYYGNSCVYTYFTDGEKCSKIVYNWLEGGGVSWLKRNLARAYKNYVEEEGKKKVFLGLKARDVEEWIEGHHHHHH | not soluble
MAHHHHHHMSYSFVVVPPPVPAATPAFEAHVSTLLRHVPHPTFITCTSYSPYFTSAAAESLAAAADTADESANAMEASVTQQALSYLHQCVAADVGLVLTVTATRATSHAESVQSTQGGDQDSQQHPKQHTSSSSASMVPTTTTLTGASRGGTAAILADFIGRTSAAPATKLGTANSQEATRHRSRGLMVLRGDDGGYTRQCMIAAQKGGASASPPSLSPNPYVDFADGVDLLRFIHSTLRGRDGEAMCEITGDEPAGAAVCLCIGGYPQGHVLDRQWGADAATAAAVPSAQSPLPCQTLASLRFLDEVDTVFADTEAQLRRAQGTHSAPRPPSLESCVEAAEALFARLGAVRRLWTTPSYYPPSVRAACTRRTVANKVFLRPPGTRQCVADSAWDGCGSAGAHVVVTQVITSATEFFDYVEDIRNALRSSVPPARGVPCDRGRDGAAATEARGASVPCLQLRAASALPSSSPSLVIVPGLMAPLRAEQFLRSALQLKVIPSVPFQRALREYEGALHSAVETLRSAVSSNAIDVYAEAKERAEACFQEWMVAITVDIVRDLRARGYTHVNFSAFQYGCGDAVGCVVAALAAEGREEVVEEP | not soluble
